Results published in paper PMC5014550, “Mitochondrial Bol1 and Bol3 function as assembly factors for specific iron-sulfur proteins” (eLife, 2016).

B1: human BOLA1 (residues 30-137) with N-terminal His-tag (natural protein, UniProt Q9Y3E2 30-137, looked up)
chain: GPVEAAIRTKLEEALSPEVLELRNESGGHAVPPGSETHFRVAVVSSRFEGLSPLQRHRLVHAALAEELGGPVHALAIQARTPAQWRENSQLDTSPPCLGGNKKTLGTP
notes: Labelled with NT-647 dye in MST; source: E. coli BL21 (DE3), pET-Duet1, purified (HisTrap HP, Superdex 200 gel filtration)
B2: human GLRX5 (residues 32-157) with N-terminal His-tag (natural protein, UniProt Q86SX6 32-157, looked up)
chain: AGSGAGGGGSAEQLDALVKKDKVVVFLKGTPEQPQCGFSNAVVQILRLHGVRDYAAYNVLDDPELRQGIKDYSNWPTIPQVYLNGEFVGGCDILLQMHQNGDLVEELKKLGIHSALLDEKKDQDSK
notes: Chemically reconstituted with a [2Fe-2S] cluster (holo form, >85% holo); holo-GLRX5 alone eluted as a homodimer; also called holo-GLRX5; source: E. coli BL21 (DE3), pET-Duet1, purified (HisTrap HP, Superdex 200 gel filtration)
B3: human BOLA1 (residues 21-137), NMR construct (natural protein, UniProt Q9Y3E2 21-137, looked up)
chain: QGSAGSGAIGPVEAAIRTKLEEALSPEVLELRNESGGHAVPPGSETHFRVAVVSSRFEGLSPLQRHRLVHAALAEELGGPVHALAIQARTPAQWRENSQLDTSPPCLGGNKKTLGTP
notes: human BOLA1, residues 21-137, construct for NMR; 15N- or 13C,15N-labelled where observed by NMR; His-tag cleaved by tobacco etch virus protease; also called 15N-labeled BOLA1; source: E. coli BL21(DE3)GOLD, pETG20A vector, purified; not shown: His-tag, N-terminal, cleaved
B4: human BOLA3 (residues 27-107), NMR construct (natural protein, UniProt Q53S33 27-107, looked up)
chain: ATQTEGELRVTQILKEKFPRATAIKVTDISGGCGAMYEIKIESEEFKEKRTVQQHQMVNQALKEEIKEMHGLRIFTSVPKR
notes: human BOLA3, residues 27-107, construct for NMR; 15N- or 13C,15N-labelled where observed by NMR; His-tag cleaved by tobacco etch virus protease; also called 15N-labeled BOLA3; source: E. coli BL21(DE3)GOLD, pET15 vector, purified; not shown: His-tag, N-terminal, cleaved
B5: human BOLA3 (residues 25-107) with N-terminal His-tag (natural protein, UniProt Q53S33 25-107, looked up)
chain: MFATQTEGELRVTQILKEKFPRATAIKVTDISGGCGAMYEIKIESEEFKEKRTVQQHQMVNQALKEEIKEMHGLRIFTSVPKR
notes: as for B1

Key:
[1] = target: T1, human NFU1 (residues 57-254) with N-terminal His-tag (human, UniProt Q9UMS0 57-254); test: MST; apo-NFU1, anaerobic
T1 chain: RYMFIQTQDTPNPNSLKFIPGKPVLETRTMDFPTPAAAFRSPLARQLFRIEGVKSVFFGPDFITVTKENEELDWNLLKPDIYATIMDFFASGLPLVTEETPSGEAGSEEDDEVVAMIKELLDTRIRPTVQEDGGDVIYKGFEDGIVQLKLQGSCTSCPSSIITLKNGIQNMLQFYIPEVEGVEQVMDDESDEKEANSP

[2] = target: T1, human NFU1 (residues 57-254) with …; test: MST; holo-NFU1, anaerobic
[3] = target: B2; test: SEC; gel filtration in buffer R of holo-GLRX5 alone, co-reconstituted equimolar GLRX5-BOLA1 and holo-GLRX5-BOLA3, recorded at 420 nm and 280 nm; fractions analysed by Coomassie and immunostaining; conditions: both partners purified
[4] = target: T2, human NFU1 (residues 57-254) with N-terminal His-tag (human, UniProt Q9UMS0 57-254); test: MST; 200 nM NT-647-labeled BOLA1 or BOLA3, titrated with unlabeled apo-NFU1 (200 µM to 6.1 nM); buffer T (50 mM KPi pH 7.4, 150 mM NaCl, 5% glycerol, 0.05 mg/ml BSA, 0.05% Tween20), 21°C, anaerobic; conditions: both partners purified
T2 construct: Used as apo form or chemically reconstituted holo form carrying a [4Fe-4S] cluster; the assay's format says which; also called apo-NFU1; holo-NFU1; source: E. coli BL21 (DE3), pET-Duet1, purified (HisTrap HP, Superdex 200 gel filtration)
T2 sequence (looked up): T1 chain

[5] = target: the molecule itself; test: SEC; gel filtration in buffer R of holo-GLRX5 alone, co-reconstituted equimolar GLRX5-BOLA1 and holo-GLRX5-BOLA3, recorded at 420 nm and 280 nm; fractions analysed by Coomassie and immunostaining
[6] = target: T3, human GLRX5, protein used for NMR (human, UniProt Q86SX6 32-157); test: NMR titration; 1H-15N HSQC; 15N-labeled BOLA1 or BOLA3 titrated with unlabeled apo-GLRX5 and vice versa; 15N R1 and R2 relaxation on the final mixtures; degassed buffer N (50 mM phosphate pH 7, 5 mM GSH, 5 mM DTT), 10% D2O, 298 K; conditions: both partners purified
T3 construct: human mitochondrial monothiol glutaredoxin GLRX5; Used as apo form with 5 mM GSH, or chemically reconstituted with a [2Fe-2S] cluster; the assay's format says which; also called apo-GLRX5; holo-GLRX5; source: produced as previously reported (Banci et al., 2014)
T3 sequence (looked up): B2 chain

[7] = target: T2, human NFU1 (residues 57-254) with …; test: MST; 200 nM NT-647-labeled BOLA1 or BOLA3, titrated with unlabeled chemically reconstituted holo-NFU1 carrying a [4Fe-4S] cluster (200 µM to 6.1 nM); buffer T, 21°C, anaerobic; conditions: both partners purified

| Binder | Kd [1] [nM] | Kd [4] [nM] | stoichiometry N [6] | also measured |
| --- | --- | --- | --- | --- |
| B1 | 3590 | ~3000 | – | Kd [2]: 2140 nM; binding result [3]: binds |
| B2 | – | – | – | stoichiometry N [5]: 2 |
| B3 | – | – | 1 | – |
| B4 | – | – | 1 | – |
| B5 | 3570 | ~3000 | – | Kd [7]: 800 nM |
